# Experimental data: patent US20190390204A1
# How the values were obtained:
# Test in all cases: cell-based or functional assay
# TALE(Ngn2)-NLS-CRY2PHR = biological target: TALE(Ngn2)-NLS-CRY2PHR
# [1] = biological target: LITE 1.9.1 TALE-CIB1 construct (mutated NLS, Δ318-334, AD5 NES)
# [2] = biological target: LITE2.0 TALE-CIB1 component
substance,measurement,setting,value
CIB1-NLS-VP64_2A_GFP,"Neurog2 expression (qPCR) after 0.5 h of light stimulation, vs YFP samples",TALE(Ngn2)-NLS-CRY2PHR,5 fold
same,"Neurog2 expression (qPCR), peak at 12 h of light stimulation, vs YFP samples",TALE(Ngn2)-NLS-CRY2PHR,19 fold
CRY2PHR-NLS-VP64_2A_GFP,"background mRNA increase (no light), LITE1.9.1",[1],1.06 fold
same,"light induction (light/no-light), LITE1.9.1",[1],4 fold
LITE2.0 CRY2PHR-VP64 component,"light induction (light/no-light ratio of Neurog2 expression), LITE2.0",[2],20.4
